Data: the Human Domainome abundance scans (Beltran et al. 2025)
± gives the uncertainty stated by the source.

B1: Advillin, residues 785 to 819; numbered along this chain, O75366 (parent)
chain: LSEQDFVSVFGITRGQFAALPGWKQLQMKKEKGLF

Variants of: B1
Experiment: abundance fitness (aPCA) (normalised: wild type 0, dead -1); higher = more abundant; growth selection in yeast, the domain comes from the species named
Conditions: Homo sapiens

Variant | abundance fitness
LSEQDFVSVFGITRGQFAPLPGWKQLQMKKEKGLF | -0.749 ± 0.11
LSEQDFVSVFGITRGQFAWLPGWKQLQMKKEKGLF | -0.654 ± 0.096
LSEQDFVSVFGITRGQFAMLPGWKQLQMKKEKGLF | -0.174 ± 0.096
NSEQDFVSVFGITRGQFAALPGWKQLQMKKEKGLF | -0.078 ± 0.13
KSEQDFVSVFGITRGQFAALPGWKQLQMKKEKGLF | -0.266 ± 0.076
LSEQDFVSVFGITRGQFAALPGWKQLVMKKEKGLF | -0.139 ± 0.058
LSEQDFVSVFGITRGQFAALPGWKQLRMKKEKGLF | -0.186 ± 0.052
LSEQDFVSVFGITRGQFAALPGWKQLAMKKEKGLF | -0.125 ± 0.061
LSEQDFVSVFGITRGQFAALPGWKQLFMKKEKGLF | -0.416 ± 0.3
LSEQDFVSVFGITRGQFAALPGWKQLSMKKEKGLF | -0.183 ± 0.063
LSEQDFVSVFGITRGQFAALPGWKQLEMKKEKGLF | 0.098 ± 0.075
LSEQDHVSVFGITRGQFAALPGWKQLQMKKEKGLF | -0.87 ± 0.31
LSEQDNVSVFGITRGQFAALPGWKQLQMKKEKGLF | -0.928 ± 0.17
LSEQDTVSVFGITRGQFAALPGWKQLQMKKEKGLF | -0.183 ± 0.068
LSEQDPVSVFGITRGQFAALPGWKQLQMKKEKGLF | -0.461 ± 0.12
LSEQDWVSVFGITRGQFAALPGWKQLQMKKEKGLF | -0.186 ± 0.072
LSEQDEVSVFGITRGQFAALPGWKQLQMKKEKGLF | -0.906 ± 0.083
LSEQDFVSVFGITRGQFAALPGWKQLQMKKEKGCF | 0.355 ± 0.11
LSEQDFVSVFGITRGQFAALPGWKQLQMKKEKGWF | 0.019 ± 0.063
LSEQDFVSVFGITRGQFAALPGWKQLQMKKEKGDF | 0.284 ± 0.14
LSEQDFVSVFGITRGQFAALPGWKQLQMKKEKGFF | 0.321 ± 0.12
LSEQDFVSVFGIPRGQFAALPGWKQLQMKKEKGLF | -0.219 ± 0.11
LSEQDFVSVFGIARGQFAALPGWKQLQMKKEKGLF | -0.397 ± 0.058
LSEQDFVSVFGICRGQFAALPGWKQLQMKKEKGLF | -0.255 ± 0.12

Variant | abundance fitness
LSEQDFVSVFGISRGQFAALPGWKQLQMKKEKGLF | -0.199 ± 0.08
LSEQDFVSVFGILRGQFAALPGWKQLQMKKEKGLF | -0.619 ± 0.14
LSEQDFVSVFGITRGQFAALPGWKQLQMKKVKGLF | -0.367 ± 0.12
LSEQDFVSVFGITRGQFAALPGWKQLQMKKKKGLF | -0.271 ± 0.21
LSEQDFVSVFGITRGQFAALPGWKQLQMKKCKGLF | -0.443 ± 0.088
LSEQDFVSVFGITRGQFAALPGWKQLQMKKAKGLF | -0.173 ± 0.059
LSEQDFVSVFGITRGQFAALPGWKQLQMKKWKGLF | -0.709 ± 0.14
LSEQDFVSVFGITRGQFAALPGWKQLQMKKLKGLF | -0.42 ± 0.064
LSEQDFVSVFGITRGQFNALPGWKQLQMKKEKGLF | 0.154 ± 0.1
LSEQDFVSVFGITRGQFSALPGWKQLQMKKEKGLF | -0.201 ± 0.065
LSEQDFVSVFGITRGQFCALPGWKQLQMKKEKGLF | -0.079 ± 0.09
LSEQDFVSVFGITRGQFAALQGWKQLQMKKEKGLF | -0.271 ± 0.17
LSEQDFMSVFGITRGQFAALPGWKQLQMKKEKGLF | -0.291 ± 0.17
LSEQDFWSVFGITRGQFAALPGWKQLQMKKEKGLF | -0.343 ± 0.12
LSEQDFSSVFGITRGQFAALPGWKQLQMKKEKGLF | 0.071 ± 0.11
LSEQDFISVFGITRGQFAALPGWKQLQMKKEKGLF | -0.028 ± 0.1
LSEQDFTSVFGITRGQFAALPGWKQLQMKKEKGLF | -0.115 ± 0.088
LSEQDFQSVFGITRGQFAALPGWKQLQMKKEKGLF | 0.004 ± 0.072
LSEQCFVSVFGITRGQFAALPGWKQLQMKKEKGLF | -1.17 ± 0.25
LSEQVFVSVFGITRGQFAALPGWKQLQMKKEKGLF | -0.521 ± 0.077
LSEGDFVSVFGITRGQFAALPGWKQLQMKKEKGLF | -0.001 ± 0.052
LSERDFVSVFGITRGQFAALPGWKQLQMKKEKGLF | -0.11 ± 0.053
LSEFDFVSVFGITRGQFAALPGWKQLQMKKEKGLF | -0.063 ± 0.17
LSEDDFVSVFGITRGQFAALPGWKQLQMKKEKGLF | -0.592 ± 0.12

Variant | abundance fitness
LSEIDFVSVFGITRGQFAALPGWKQLQMKKEKGLF | 0.237 ± 0.092
LSEPDFVSVFGITRGQFAALPGWKQLQMKKEKGLF | -0.076 ± 0.062
LSQQDFVSVFGITRGQFAALPGWKQLQMKKEKGLF | -0.225 ± 0.091
LSSQDFVSVFGITRGQFAALPGWKQLQMKKEKGLF | -0.183 ± 0.11
LSCQDFVSVFGITRGQFAALPGWKQLQMKKEKGLF | -0.421 ± 0.087
LSIQDFVSVFGITRGQFAALPGWKQLQMKKEKGLF | -0.175 ± 0.22
LSEQDFVSVFGITRGQFAALPGWKQLQMKKEKQLF | 0.186 ± 0.24
LSEQDFVSVFGITRGQFAALPGWKQLQMKKEKVLF | -0.525 ± 0.11
LSEQDFVSVFGITRGQFAALPGWKQLQMKKEKWLF | -0.541 ± 0.08
LSEQDFVSVFGITRGQFAALPGWKQLQMKKEKNLF | -0.401 ± 0.1
LSEQDFVSVFGITRGQFAALPGWKQLQMMKEKGLF | -0.187 ± 0.16
LSEQDFVSVFGITRGQFAALPGWKQLQMSKEKGLF | -0.017 ± 0.068
LSEQDFVSVFGITRGQFAALPGWKQLQMWKEKGLF | -0.075 ± 0.07
LSEQDFVSVFGITRGQFAALPGWKQLQMGKEKGLF | -0.266 ± 0.065
LSEQDFVSVFGITRGQFAALPGWKQLQMVKEKGLF | 0 ± 0.077
LSEQDFVSVFGITRGQFAALPGWKQLQMLKEKGLF | -0.289 ± 0.071
LSEQDFVSVFGITRGQFAALPGWKQLQMKKEKGLV | 0.141 ± 0.097
LSEQDFVSVFGITRGQFAALPGWKQLQMKKEKGLE | 0.129 ± 0.094
LSEQDFVSVFGITRGQFAALPGWKQLQMKKEKGLW | -0.13 ± 0.17
LSEQDFVSVFGITRGQFAALPGWKQLQMKKEKGLN | -0.478 ± 0.43
LSEQDFVSVFGITRGQFAALPGWKQLQMKKEKGLQ | -0.071 ± 0.3
LSEQDFVSVFGITRGQFAALPGWKQQQMKKEKGLF | 0.12 ± 0.11
